The assay deals with human purified plasma‐derived fibronectin (human). The experiment in a line: ELISA. Background: ELISA stands for enzyme-linked immunosorbent assay.

Turning to “recombinant VWF p.D2509E (from UniProt P04275 23-2813) (natural protein)”, the binding as percent of normal VWF is 68%.

These data come from PMC8178691.
